Assay [1] has as its target human CD47 with His tag (human) (UniProt Q08722). The assay is described as follows: ELISA; competition with SIRPa-Fc. In general terms: ELISA stands for enzyme-linked immunosorbent assay.
The target of another assay is CD47 (Homo sapiens) (UniProt Q08722). The conditions noted are these: cited from earlier work.
CD47 (Homo sapiens), sequence (Q08722 19-323): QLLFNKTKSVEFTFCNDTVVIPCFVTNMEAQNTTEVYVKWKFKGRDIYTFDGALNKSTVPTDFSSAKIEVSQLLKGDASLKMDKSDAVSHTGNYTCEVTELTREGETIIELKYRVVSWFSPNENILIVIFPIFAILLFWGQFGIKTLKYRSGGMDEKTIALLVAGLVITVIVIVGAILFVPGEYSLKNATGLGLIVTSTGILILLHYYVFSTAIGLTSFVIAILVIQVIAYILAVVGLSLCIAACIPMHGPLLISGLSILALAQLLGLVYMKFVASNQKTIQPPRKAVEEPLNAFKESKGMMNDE

human CD47 with His tag (human), sequence (Q08722 19-323): as above
SIRPα, sequence (P97797 32-373): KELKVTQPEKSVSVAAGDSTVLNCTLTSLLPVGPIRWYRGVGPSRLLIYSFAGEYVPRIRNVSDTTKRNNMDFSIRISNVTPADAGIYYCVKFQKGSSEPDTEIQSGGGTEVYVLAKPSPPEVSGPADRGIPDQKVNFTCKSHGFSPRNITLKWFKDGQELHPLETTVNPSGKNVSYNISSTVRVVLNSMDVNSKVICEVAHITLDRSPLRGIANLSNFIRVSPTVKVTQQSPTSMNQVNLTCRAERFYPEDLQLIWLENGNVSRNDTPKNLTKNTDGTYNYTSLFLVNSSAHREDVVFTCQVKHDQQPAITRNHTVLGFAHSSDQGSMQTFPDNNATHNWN

For B6H12.2, the IC50 in assay [1] is 233 nM.

As to SIRPα (from UniProt P97797), in the assay with CD47 (Homo sapiens), the Kd is 300 nM.

For orientation: IC50 means the concentration at which inhibition is half-maximal. Usually Kd stands for the equilibrium constant for the complex coming apart.

(Values after publication PMC10801496.)
